The numbers were not newly measured in paper PMC3721222, which cites them from elsewhere.

Where two headings read alike, the source gives them in different places. Where only a bound is given, the exact number is not on record here.

Some targets named below: Cathepsin D (UniProt P07339); Thrombin (Homo sapiens) (UniProt P00734); Kv1.6 (UniProt P17658); Kv1.1 (UniProt Q09470); Kv1.2 (UniProt P16389).
Series [1] deals with Plasma kallikrein (Homo sapiens) (UniProt P03952).
The target in series [2] is alpha-Factor XIIa (Homo sapiens) (UniProt P00748).
Sequence of UniProt P00748 (P00748 20-372, chain 1 of 2): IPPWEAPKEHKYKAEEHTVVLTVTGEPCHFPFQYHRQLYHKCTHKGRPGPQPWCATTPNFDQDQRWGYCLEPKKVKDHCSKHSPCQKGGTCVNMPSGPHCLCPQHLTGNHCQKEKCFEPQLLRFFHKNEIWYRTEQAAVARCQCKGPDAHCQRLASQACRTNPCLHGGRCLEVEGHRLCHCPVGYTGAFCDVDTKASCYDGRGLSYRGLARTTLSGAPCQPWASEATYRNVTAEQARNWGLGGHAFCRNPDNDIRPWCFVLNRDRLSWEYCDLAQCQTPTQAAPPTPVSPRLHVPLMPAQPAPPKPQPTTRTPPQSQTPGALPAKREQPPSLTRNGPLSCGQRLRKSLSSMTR
Sequence of UniProt P00748 (P00748 373-615, chain 2 of 2): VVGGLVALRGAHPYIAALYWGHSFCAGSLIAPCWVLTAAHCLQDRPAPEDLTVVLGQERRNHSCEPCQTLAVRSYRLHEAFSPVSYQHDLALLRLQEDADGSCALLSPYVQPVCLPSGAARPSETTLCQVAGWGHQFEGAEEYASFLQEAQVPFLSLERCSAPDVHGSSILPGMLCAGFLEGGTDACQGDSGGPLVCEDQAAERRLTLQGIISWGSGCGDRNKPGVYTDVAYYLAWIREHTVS
The target in series [3] is Trypsin (Bos taurus) (UniProt P00760).
Sequence of UniProt P00760 (P00760 149-246): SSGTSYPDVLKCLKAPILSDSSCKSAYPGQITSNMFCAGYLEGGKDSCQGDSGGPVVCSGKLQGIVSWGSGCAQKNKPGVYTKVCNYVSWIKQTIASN
The target in series [4] is Chymotrypsin (Bos taurus) (UniProt P00766).
In series [5] the target is Trypsin (Bos taurus) (UniProt P00760). The source holds these as a separate data set.
Series [6] addresses Plasmin (Homo sapiens) (UniProt P00747).
Sequence of UniProt P00747 (P00747 581-810): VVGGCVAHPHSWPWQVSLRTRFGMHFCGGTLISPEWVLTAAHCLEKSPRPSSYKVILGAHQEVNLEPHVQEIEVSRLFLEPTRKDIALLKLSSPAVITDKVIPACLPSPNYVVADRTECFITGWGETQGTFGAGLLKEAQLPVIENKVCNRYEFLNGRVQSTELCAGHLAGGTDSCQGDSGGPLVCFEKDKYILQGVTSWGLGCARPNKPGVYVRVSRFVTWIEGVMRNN
Series [7] concerns the target Trypsin (Bos taurus) (UniProt P00760). The source holds these as a separate data set.
The target is the same in series [8]. This is another data set of the same source.
Series [9] has the same target. This is another data set of the same source.
Series [10] addresses Chymotrypsin (Bos taurus) (UniProt P00766). The source holds these as a separate data set.
In series [11] the target is Trypsin (Bos taurus) (UniProt P00760). The source holds these as a separate data set.
The target of series [12] is Plasmin (Homo sapiens) (UniProt P00747). This is another data set of the same source.
Series [13] deals with Chymotrypsin (Bos taurus) (UniProt P00766). This is another data set of the same source.
In series [14] the target is Trypsin (Bos taurus) (UniProt P00760). The source holds these as a separate data set.
In series [15] the target is Proteinase K (Parengyodontium album) (UniProt P06873).
Sequence of UniProt P06873 (P06873 106-384): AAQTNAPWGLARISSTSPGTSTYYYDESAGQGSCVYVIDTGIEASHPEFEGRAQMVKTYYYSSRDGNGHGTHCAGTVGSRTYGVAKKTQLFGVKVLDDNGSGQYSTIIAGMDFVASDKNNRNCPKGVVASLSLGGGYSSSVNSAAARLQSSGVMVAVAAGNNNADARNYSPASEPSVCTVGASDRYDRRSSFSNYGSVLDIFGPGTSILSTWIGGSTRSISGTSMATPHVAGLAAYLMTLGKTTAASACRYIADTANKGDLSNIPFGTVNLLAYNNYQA
Series [16] concerns the target Subtilisin A (Bacillus licheniformis) (UniProt P00780).
Sequence of UniProt P00780 (P00780 106-379): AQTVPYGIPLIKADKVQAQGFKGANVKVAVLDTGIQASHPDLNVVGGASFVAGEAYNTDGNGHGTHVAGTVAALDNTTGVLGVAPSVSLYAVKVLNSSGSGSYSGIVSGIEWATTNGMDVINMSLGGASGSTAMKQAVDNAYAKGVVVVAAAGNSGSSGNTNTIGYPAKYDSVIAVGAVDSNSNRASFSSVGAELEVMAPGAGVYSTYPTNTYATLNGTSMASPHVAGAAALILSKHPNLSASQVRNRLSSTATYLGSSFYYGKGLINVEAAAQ
Series [17] deals with Chymotrypsin (Bos taurus) (UniProt P00766). This is another data set of the same source.
Series [18] concerns the target Pancreatic elastase (Sus scrofa) (UniProt P00772).
Sequence of UniProt P00772 (P00772 27-266): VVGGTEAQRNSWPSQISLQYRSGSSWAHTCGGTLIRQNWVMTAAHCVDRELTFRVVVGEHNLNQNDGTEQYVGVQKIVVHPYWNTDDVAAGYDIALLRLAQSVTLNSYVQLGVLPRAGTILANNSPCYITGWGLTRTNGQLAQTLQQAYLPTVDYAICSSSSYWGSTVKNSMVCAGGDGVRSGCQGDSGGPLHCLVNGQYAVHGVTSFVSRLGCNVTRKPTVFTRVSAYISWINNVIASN
Series [19] addresses Neutrophil elastase (Homo sapiens) (UniProt P08246).
Sequence of UniProt P08246 (P08246 30-267): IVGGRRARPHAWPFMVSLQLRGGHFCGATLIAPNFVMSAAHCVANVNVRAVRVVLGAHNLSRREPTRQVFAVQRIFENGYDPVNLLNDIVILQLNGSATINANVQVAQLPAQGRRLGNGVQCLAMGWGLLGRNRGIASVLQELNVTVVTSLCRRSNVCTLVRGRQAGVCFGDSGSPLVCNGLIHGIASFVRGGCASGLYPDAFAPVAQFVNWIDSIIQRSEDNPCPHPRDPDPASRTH
Series [20] concerns the target Trypsin (Bos taurus) (UniProt P00760). This is another data set of the same source.
The target of series [21] is Chymotrypsin (Bos taurus) (UniProt P00766). The source holds these as a separate data set.
For series [22], the target named is Trypsin (Bos taurus) (UniProt P00760). The source holds these as a separate data set.
Series [23] deals with Plasmin (Homo sapiens) (UniProt P00747). The source holds these as a separate data set.

Sequence of UniProt P03952 (P03952 391-638): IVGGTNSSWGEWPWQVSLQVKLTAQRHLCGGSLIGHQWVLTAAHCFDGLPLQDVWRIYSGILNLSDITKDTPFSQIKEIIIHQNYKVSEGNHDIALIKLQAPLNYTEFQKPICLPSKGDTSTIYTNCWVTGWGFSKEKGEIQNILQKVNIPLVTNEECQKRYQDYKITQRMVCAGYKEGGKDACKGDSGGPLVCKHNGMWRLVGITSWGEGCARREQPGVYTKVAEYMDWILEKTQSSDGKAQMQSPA
Sequence of UniProt P07339 (P07339 65-412): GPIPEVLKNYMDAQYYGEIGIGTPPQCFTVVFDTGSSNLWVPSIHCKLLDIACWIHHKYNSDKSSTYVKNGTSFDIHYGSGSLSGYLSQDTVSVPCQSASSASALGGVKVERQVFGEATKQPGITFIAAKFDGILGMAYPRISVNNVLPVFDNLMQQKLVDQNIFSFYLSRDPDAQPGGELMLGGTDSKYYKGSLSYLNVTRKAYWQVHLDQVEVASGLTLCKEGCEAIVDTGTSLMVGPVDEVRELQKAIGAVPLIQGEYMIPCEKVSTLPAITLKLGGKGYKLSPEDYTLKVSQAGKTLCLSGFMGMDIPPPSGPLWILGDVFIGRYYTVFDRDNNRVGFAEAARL
Sequence of UniProt P17658 (P17658 whole entry): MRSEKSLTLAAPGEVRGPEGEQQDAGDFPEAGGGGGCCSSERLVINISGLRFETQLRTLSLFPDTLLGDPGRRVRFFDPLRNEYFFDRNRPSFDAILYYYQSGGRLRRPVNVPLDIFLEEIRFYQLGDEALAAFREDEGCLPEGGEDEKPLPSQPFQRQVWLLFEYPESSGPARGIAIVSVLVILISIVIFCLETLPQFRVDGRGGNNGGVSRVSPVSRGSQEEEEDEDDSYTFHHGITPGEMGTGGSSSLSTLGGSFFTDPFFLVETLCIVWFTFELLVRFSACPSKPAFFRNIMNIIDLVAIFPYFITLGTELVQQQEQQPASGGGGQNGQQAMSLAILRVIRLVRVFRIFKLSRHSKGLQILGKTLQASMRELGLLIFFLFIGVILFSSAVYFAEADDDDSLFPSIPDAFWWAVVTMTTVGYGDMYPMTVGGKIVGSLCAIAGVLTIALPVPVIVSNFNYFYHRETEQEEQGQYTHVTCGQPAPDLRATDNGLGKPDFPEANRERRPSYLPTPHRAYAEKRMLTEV
Sequence of UniProt P16389 (P16389 whole entry): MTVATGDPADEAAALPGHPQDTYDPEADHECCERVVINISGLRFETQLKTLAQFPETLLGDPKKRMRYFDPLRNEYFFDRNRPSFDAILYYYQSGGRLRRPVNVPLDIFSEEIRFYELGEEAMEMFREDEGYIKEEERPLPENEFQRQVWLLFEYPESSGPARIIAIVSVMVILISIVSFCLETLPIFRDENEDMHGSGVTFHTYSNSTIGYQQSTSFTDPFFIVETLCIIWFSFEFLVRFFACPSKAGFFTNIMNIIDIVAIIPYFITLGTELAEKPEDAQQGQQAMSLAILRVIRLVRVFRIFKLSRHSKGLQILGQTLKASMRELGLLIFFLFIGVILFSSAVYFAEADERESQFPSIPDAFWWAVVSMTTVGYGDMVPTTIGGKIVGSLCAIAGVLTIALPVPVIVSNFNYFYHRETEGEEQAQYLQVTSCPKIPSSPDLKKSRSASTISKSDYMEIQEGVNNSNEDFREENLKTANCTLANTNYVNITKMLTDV
Sequence of UniProt Q09470 (Q09470 whole entry): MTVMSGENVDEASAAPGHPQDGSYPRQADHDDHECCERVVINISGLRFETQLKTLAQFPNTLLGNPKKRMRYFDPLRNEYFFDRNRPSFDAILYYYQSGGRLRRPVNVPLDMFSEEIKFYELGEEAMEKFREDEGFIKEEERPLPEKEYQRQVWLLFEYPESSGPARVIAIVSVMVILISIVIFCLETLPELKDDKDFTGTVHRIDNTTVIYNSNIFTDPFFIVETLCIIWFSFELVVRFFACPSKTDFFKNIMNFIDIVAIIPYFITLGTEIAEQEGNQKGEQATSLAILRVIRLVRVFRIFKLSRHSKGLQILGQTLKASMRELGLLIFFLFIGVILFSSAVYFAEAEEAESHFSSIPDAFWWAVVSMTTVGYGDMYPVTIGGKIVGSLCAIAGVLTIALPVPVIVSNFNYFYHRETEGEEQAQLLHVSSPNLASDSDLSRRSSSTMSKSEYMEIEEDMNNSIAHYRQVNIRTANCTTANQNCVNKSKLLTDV

Take TSPI (from UniProt B7S4N9): the inhibition constant Ki in series [1] was 0.057 nM; in series [2], 2380 nM.
“OH-TCI (recombinant) (from UniProt B6RLX2)”: the inhibitory constant (Ki) was 391 nM with Trypsin (Bos taurus) [3] and 84.6 nM in [4].
For the substance Textilinin-1 (from UniProt Q90WA1), the inhibition constant Ki in the series with Trypsin (Bos taurus) [5] is 0.76 nM; with Plasmin (Homo sapiens) [6], 0.49 nM.
Regarding HWTX-XI (from UniProt P68425), the equilibrium dissociation constant (Kd) with Trypsin (Bos taurus) [7] was 0.23 nM.
Regarding APEKTx1 (from UniProt P86862), the Kd in the series with Trypsin (Bos taurus) [8] is 124 nM.
On to rBmKTT-3 (from UniProt P0DJ47), for which, in the series with Trypsin (Bos taurus) [9], the equilibrium dissociation constant (Kd) is 760 nM.
For the substance BBPTI-1 (from UniProt A8Y7P1), in series [10], the inhibitory constant (Ki) is 4.77 nM.
For “Equistatin second domain (from UniProt P81439)”, the Ki in the series with Cathepsin D was 0.3 nM.
For Pr-mulgin 2 (from UniProt E7FL12), the Ki in the series with Trypsin (Bos taurus) [11] is 5 nM; with Plasmin (Homo sapiens) [12], 40 nM; in [13], 40 nM.
In the case of Bicolin (from UniProt C0LNR2), the figures for the inhibition constant Ki in the series with Trypsin (Bos taurus) [14] and with Thrombin (Homo sapiens) were 550 nM and 26000 nM, respectively.
Turning to AvCI (from UniProt L7X735), the inhibitory constant (Ki) in [15] was 65.4 nM; in series [16], 20.5 nM; in series [17], 49.9 nM; in [18], 11.3 nM; in series [19], 8.74 nM.
As to PILP-1 (from UniProt B4ESA2), the inhibitory constant (Ki) with Trypsin (Bos taurus) [20] was 55.6 nM.
Oh11-1 (from UniProt P82966): the Ki in series [21] was 3520 nM.
For the substance α-dendrotoxin (from UniProt P00980), the equilibrium dissociation constant (Kd) with Kv1.6, with Kv1.1 and with Kv1.2 was less than 20 nM in each case.
For Pr-mulgin 3 (from UniProt E7FL13), the figures for the inhibition constant (Ki) with Trypsin (Bos taurus) [22] and in the series with Plasmin (Homo sapiens) [23] were 5 nM and 100 nM, respectively.
